Data reported in article PMC6525113.

Target: Human methylmalonyl-CoA epimerase, wild-type (human) (UniProt Q96PE7)
Assay: not stated; solution data (Supplemental Fig. S2)

- stoichiometry N: 2
Substance: Human methylmalonyl-CoA epimerase, wild-type (from UniProt Q96PE7 45-176) (enzyme)
